From US20160235814A1

Target: human IgG (coated on 96-well plates to form immune complexes, IC) (human)
Assay: cell-based or functional assay

**Q.** Which ROS production by IC-activated human neutrophils (scale: % reduction of ROS production at 0.01 mg/ml sCD32) does the source give for “Human sCD32 (SM101), recombinant soluble human FcγRIIB (from UniProt P31994 46-221) (receptor)” here?
**A.** The ROS production by IC-activated human neutrophils was 30.

**Q.** And the ROS production by IC-activated human neutrophils (scale: % reduction of ROS production at 0.1 mg/ml sCD32)?
**A.** Its ROS production by IC-activated human neutrophils is 65.

**Q.** And the ROS production by IC-activated human neutrophils (scale: % reduction of ROS production at 0.5 mg/ml sCD32)?
**A.** Its ROS production by IC-activated human neutrophils is 75.
